Results from PMC7606108 (Acta Pharmaceutica Sinica. B, 2020).

Target: the molecule itself
Assay: sucrose density gradient analysis

B1: Acetylcholinesterase, endogenous in macrophages (enzyme, UniProt P21836 32-614, looked up)
chain: EGREDPQLLVRVRGGQLRGIRLKAPGGPVSAFLGIPFAEPPVGSRRFMPPEPKRPWSGVLDATTFQNVCYQYVDTLYPGFEGTEMWNPNRELSEDCLYLNVWTPYPRPASPTPVLIWIYGGGFYSGAASLDVYDGRFLAQVEGAVLVSMNYRVGTFGFLALPGSREAPGNVGLLDQRLALQWVQENIAAFGGDPMSVTLFGESAGAASVGMHILSLPSRSLFHRAVLQSGTPNGPWATVSAGEARRRATLLARLVGCPPGGAGGNDTELIACLRTRPAQDLVDHEWHVLPQESIFRFSFVPVVDGDFLSDTPEALINTGDFQDLQVLVGVVKDEGSYFLVYGVPGFSKDNESLISRAQFLAGVRIGVPQASDLAAEAVVLHYTDWLHPEDPTHLRDAMSAVVGDHNVVCPVAQLAGRLAAQGARVYAYIFEHRASTLTWPLWMGVPHGYEIEFIFGLPLDPSLNYTTEERIFAQRLMKYWTNFARTGDPNDPRDSKSPQWPPYTTAAQQYVSLNLKPLEVRRGLRAQTCAFWNRFLPKLLSATDTLDEAERQWKAEFHRWSSYMVHWKNQFDHYSKQERCSDL
  stoichiometry N: 4
